Where a chain is given by its changes, count along the chain named.
T1: CRISP2 Y99P, His-tagged (human, UniProt P16562 22-243, Y99P, RED-tris-NTA fluorescent label on the His tag)
T1 sequence: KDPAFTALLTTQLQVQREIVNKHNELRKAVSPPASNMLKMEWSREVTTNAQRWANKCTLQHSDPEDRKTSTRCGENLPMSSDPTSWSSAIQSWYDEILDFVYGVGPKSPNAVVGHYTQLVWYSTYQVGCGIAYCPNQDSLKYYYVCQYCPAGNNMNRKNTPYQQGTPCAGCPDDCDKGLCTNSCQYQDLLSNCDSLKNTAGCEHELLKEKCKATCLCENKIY

T2: CRISP2 N97P, His-tagged (human, UniProt P16562 22-243, N97P, RED-tris-NTA fluorescent label on the His tag)
T2 sequence: T1 sequence with N76P, P78Y

T3: CRISP2 L98G, His-tagged (human, UniProt P16562 22-243, L98G, RED-tris-NTA fluorescent label on the His tag)
T3 sequence: T1 sequence with L77G, P78Y

T4: Pry1 (pathogen related in yeast 1), C-terminal polyhistidine tag (S. cerevisiae, UniProt P47032 20-299, RED-tris-NTA fluorescent label on the His tag)
T4 construct: Pry1, S. cerevisiae CAP family member; source: E. coli BL21, purified (nickel-NTA); not shown: polyhistidine, C-terminal, kept
T4 sequence (looked up): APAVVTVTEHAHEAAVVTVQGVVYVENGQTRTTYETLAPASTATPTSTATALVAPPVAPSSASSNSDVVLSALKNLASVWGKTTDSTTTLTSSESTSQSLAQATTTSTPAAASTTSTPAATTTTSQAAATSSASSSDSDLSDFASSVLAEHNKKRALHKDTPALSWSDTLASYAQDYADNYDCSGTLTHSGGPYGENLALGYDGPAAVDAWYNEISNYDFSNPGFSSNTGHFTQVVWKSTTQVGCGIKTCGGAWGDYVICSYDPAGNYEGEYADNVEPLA

T5: CRISP2 (cysteine-rich secretory protein 2), C-terminal polyhistidine tag (human, UniProt P16562 22-243, RED-tris-NTA fluorescent label on the His tag)
T5 construct: also called Tpx-1; testis-specific protein 1; source: E. coli BL21, purified (nickel-NTA); not shown: polyhistidine, C-terminal, kept
T5 sequence (looked up): T1 sequence with P78Y

T6: CRISP3 (cysteine-rich secretory protein 3), C-terminal polyhistidine tag (human, UniProt P54108 21-245, RED-tris-NTA fluorescent label on the His tag)
T6 construct: CRISP3, human; pET22b; source: E. coli, inclusion bodies, purified under denaturing conditions, renatured (nickel-NTA); not shown: polyhistidine, C-terminal, kept
T6 sequence (looked up): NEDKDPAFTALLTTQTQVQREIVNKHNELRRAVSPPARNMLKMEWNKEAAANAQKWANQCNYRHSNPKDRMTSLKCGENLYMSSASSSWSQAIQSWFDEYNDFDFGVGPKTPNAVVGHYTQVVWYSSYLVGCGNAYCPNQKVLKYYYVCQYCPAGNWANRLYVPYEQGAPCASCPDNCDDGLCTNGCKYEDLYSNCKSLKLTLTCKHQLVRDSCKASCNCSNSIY

T7: CRISP2 N97P, His-tagged (human, UniProt P16562 22-243, N97P, RED-tris-NTA fluorescent label on the His tag)
T7 construct: CRISP2 with the point mutation N97P in the β2-strand; Same construct as m4 with the mutation; source: E. coli, purified; not shown: polyhistidine, C-terminal, kept
T7 sequence (looked up): T1 sequence with N76P, P78Y

T8: CRISP2 L98G, His-tagged (human, UniProt P16562 22-243, L98G, RED-tris-NTA fluorescent label on the His tag)
T8 construct: CRISP2 with the point mutation L98G in the β2-strand; Same construct as m4 with the mutation; source: E. coli, purified; not shown: polyhistidine, C-terminal, kept
T8 sequence (looked up): T1 sequence with L77G, P78Y

T9: CRISP2 Y99P, His-tagged (human, UniProt P16562 22-243, Y99P, RED-tris-NTA fluorescent label on the His tag)
T9 construct: CRISP2 with the point mutation Y99P in the β2-strand; Same construct as m4 with the mutation; source: E. coli, purified; not shown: polyhistidine, C-terminal, kept
T9 sequence (looked up): T1 sequence

T10: CRISP2^N97P L98G (Homo sapiens, UniProt P16562, L98G/N97P)
T10 construct: made in house; host or cells: E. coli
T10 sequence (P16562 22-243 N97P/L98G): T1 sequence with N76P, L77G, P78Y

B1: prostate secretory protein of 94 amino acids (PSP94), C-terminal polyhistidine tag (natural protein, human, UniProt P08118 21-114, looked up)
chain: SCYFIPNEGVPGDSTRKCMDLKGNKHPINSEWQTDNCETCTCYETEISCCTLVSTPVGYDKDNCQRIFKKEDCKYIVVEKKDPKKTCSVSEWII
notes: PSP94 (β-microseminoprotein), human; also called β-microseminoprotein; MSP; source: E. coli BL21, purified (nickel-NTA)
B2: PSP94: prostate secretory protein of 94 amino acids, His-tagged, purified from E. coli; or expressed in yeast (protein)
chain: B1 chain
modifications: left off: polyhistidine, C-terminal, state not stated
notes: prostate secretory protein of 94 amino acids, His-tagged, purified from E. coli; or expressed in yeast

Key:
[1] = biological target: T1, CRISP2 Y99P, His-tagged; test: MST
[2] = biological target: T2, CRISP2 N97P, His-tagged; test: MST
[3] = biological target: T3, CRISP2 L98G, His-tagged; test: MST
[4] = biological target: T4, Pry1 (pathogen related in yeast 1), …; test: MST; 100 nM CAP protein labelled with RED-tris-NTA on its His tag, serial dilution of unlabeled PSP94 or PSP94^F24G; 20 mM Tris pH 7.5, 30 mM NaCl, 0.05% Triton X-100; Monolith NT.115, 80% laser power; triplicates; conditions: both partners purified
[5] = biological target: T5, CRISP2 (cysteine-rich secretory protein …); test: as above; conditions: both partners purified
[6] = biological target: T6, CRISP3 (cysteine-rich secretory protein …); test: as above; conditions: both partners purified
[7] = biological target: T7, CRISP2 N97P, His-tagged; test: as above; conditions: both partners purified
[8] = biological target: T8, CRISP2 L98G, His-tagged; test: as above; conditions: both partners purified
[9] = biological target: T9, CRISP2 Y99P, His-tagged; test: as above; conditions: both partners purified
[10] = biological target: T10, CRISP2^N97P L98G; test: MST binding to CRISP2 double mutant N97P L98G; design: species or system mammalian; conditions: read-out: Kd, protein-protein interaction with CRISP2^N97P L98G
Procedure: Next, we generated all three double mutant combinations of CRISP2: N97P L98G, N97P Y99P, and L98G Y99P. These three double mutant versions of CRISP2 were again expressed as His-tagged proteins in E. coli and purified, and their capacity to bind sterols in the presence or absence of PSP94 was assessed by MST. […] The capacity of the CRISP2^L98G Y99P double mutant to bind sterols even in the presence of PSP94 was confirmed by the in vivo sterol export assay (Fig. 6, A and B). When expressed in yeast cells, the CRISP2^L98G Y99P double mutant was stably expressed and secreted as monitored by Western blotting (Fig. 6C).
MST experiments were performed to assess protein–protein, protein–lipid, and protein–calcium interactions using a Monolith NT.115 (Nanotemper Technologies). Proteins were labeled using the RED-tris-NTA His tag protein labeling kit. Labeled CAP proteins, 100 nM, were mixed with a serial dilution of unlabeled PSP94, PSP9^F24G, cholesterol sulfate, or calcium chloride, prepared in binding buffer (20 mM Tris pH 7.5, 30 mM NaCl, 0.05% Triton X-100). Samples were loaded into MST standard capillaries, and MST measurements were performed using an 80% laser power setting. The dissociation constant Kd was obtained by plotting the normalized fluorescence (Fnorm) against the logarithm of ligand concentration. […]

[11] = test system: fatty acid export by CAP family members (CRISP2); test: Fatty acid export assay in yeast; assay type: cell-based, Saccharomyces cerevisiae; conditions: co-expression with CRISP2 in faa1Δ faa4Δ pry1Δ pry3Δ yeast
Description: We and others have previously shown that CAP proteins can bind eicosanoids and free fatty acids at a second lipid-binding site that is independent of the sterol-binding site ([30], [31]). To test whether PSP94 affects fatty acid binding by the CAP domain, we examined whether coexpression of PSP94 with CRISP2 affects fatty acid export from mutant cells lacking the two acyl-CoA synthases Faa1 and Faa4 and two of the three yeast CAP domain proteins, Pry1 and Pry3.
To analyze the CRISP2-dependent export of fatty acids, cells were grown overnight and the supernatant of 5 A600nm units of yeast cells was collected and dried in a freeze dryer. Fatty acid methyl esters (FAMEs) were produced by incubating the dried fractions at 85 °C for 45 min in 1 ml of methanol–sulfuric acid (5% v/v) supplemented with butylated hydroxytoluene (0.01% w/v). The FAMEs were extracted in a mixture containing 1.5 ml of NaCl (0.9% w/v) and 2 ml of hexane, and the upper phase was collected. FAMEs were then resuspended in heptane and separated on an Agilent 7890A gas chromatograph equipped with a DB-23 capillary column (30 m × 0.25 mm × 0.25 μm) (Agilent Technologies) and quantified relative to an internal standard (C17:0, 10 μg) as described ([31]).

Molecule	Kd [1] [nM]	Kd [2] [nM]	Kd [3] [nM]	Kd [4] [nM]	Kd [5] [nM]	binding result [6]	binding result [7]	binding result [8]	binding result [9]	Kd [10] [nM]	effect on fatty acid export [11]
B1	9.3	8.1	8.6	70	6	binds	binds	binds	binds	–	–
B2	–	–	–	–	–	–	–	–	–	4 ± 1.8	does not affect fatty acid binding and export

Source: article PMC8857485, “Prostate secretory protein 94 inhibits sterol binding and export by the mammalian CAP protein CRISP2 in a calcium-sensitive manner” (The Journal of Biological Chemistry, 2022)
